We go through twelve compounds from PMC5597622, “Engineered factor Xa variants retain procoagulant activity independent of direct factor Xa inhibitors” (Nature Communications, 2017).

In experiment [1] the test system is T1, FXa-A.
T1 construct: His91-Tyr99 replaced with homologous region of P. textilis venom FX
Type of experiment: biochemical. Conditions: n = 2; read-out: S2765^a K m.

Experiment [2] has as its system T2, FXa-C.
T2 construct: His91-Tyr99 replaced with homologous region of P. textilis isoform FX
Type of experiment: biochemical. Conditions: n = 2; read-out: S2765^b K m.

Experiment [3] addresses T3, pd-FXa (h-FXa) (Homo sapiens, UniProt P00742).
T3 construct: gene F10; plasma-derived human FXa (Haematologic Technologies); free or prothrombinase-assembled with FV-810 and PCPS, see series
Type of experiment: biochemical. Conditions: read-out: S2765^a K m; n = 2.

The target of experiment [4] is T3, pd-FXa (h-FXa). Type of experiment: biochemical. To be noted: read-out: S2765^b K m; n = 2.
The test system of experiment [5] is T1, FXa-A. Format: biochemical. Conditions: n = 2; read-out: S2765^b K m.
Experiment [6] addresses T4, wt-FXa (WT) (Homo sapiens, UniProt P00742).
T4 construct: gene F10; free or prothrombinase-assembled with FV-810 and PCPS, see series
Format: biochemical. To be noted: read-out: S2765^a K m; n = 2.

The subject of experiment [7] is T5, FXa-B.
T5 construct: His91-Tyr99 replaced with homologous region of T. carinatus venom FX
Format: biochemical. To be noted: n = 2; read-out: S2765^a K m.

In experiment [8] the test system is T2, FXa-C. Type of experiment: biochemical. To be noted: n = 2; read-out: S2765^a K m.
Experiment [9] addresses T4, wt-FXa (WT). Type of experiment: biochemical. Conditions: read-out: S2765^b K m; n = 2.
In experiment [10] the test system is T5, FXa-B. Format: biochemical. Conditions: n = 2; read-out: S2765^b K m.
Experiment [11] deals with constitutively active partial B-domainless recombinant form of human FV (FV-810) (human) (UniProt P12259). In words: kinetic assay of prothrombinase assembly (rate of prothrombin activation); apparent; steady-state initial velocities of prothrombin activation at 25 °C in assay buffer (20 mM Hepes, 0.15 M NaCl, pH 7.5, 5 mM CaCl2, 0.1% PEG8000) with PCPS (50 µM); how the cofactor was varied is not told.

Experiment [12] concerns the target FXa-B (Homo sapiens, UniProt P00742). In words: Inhibition of FXa by TFPI and rTAP (residual amidolytic activity). Conditions: rTAP 0.5–100 nM, 1 nM FXa, 30 min. Format: biochemical, human-snake chimera.
The test system of experiment [13] is FXa-B. The description is as above. Format: biochemical, human-snake chimera. Conditions: in the chimeric FXa variants.
In the next experiment the target is T6, wt-FXa (Homo sapiens, UniProt P00742).
T6 construct: made in house; host or cells: HEK293 (co-transfected with furin)
The experiment is described as above. Format: biochemical.

For experiment [14], the target named is FXa-A (Homo sapiens, UniProt P00742). Format: biochemical, human-snake chimera. To be noted: rTAP 0.5–100 nM, 1 nM FXa, 30 min.
In the next experiment the target is T7, pd-FXa (Homo sapiens, UniProt P00742).
T7 construct: the heavy chain derived from α or β FXa (α/β), the FXa light chain (LC); purchased Haematologic Technologies (Essex Junction, VT, USA); host or cells: human plasma
Format: biochemical.

For experiment [15], the target named is T8, FXa-C (Homo sapiens, UniProt P00742, E317A/INS311KKFVPPQKA/K316L/N312Y/R313K/T315D/T318A).
T8 construct: made in house
Format: biochemical, human-snake chimera. To be noted: rTAP 0.5–100 nM, 1 nM FXa, 30 min.

In experiment [16] the target is RVV-X activated P. textilis liver FX (Pseudonaja textilis, UniProt Q1L659). The experiment is described as follows: biochemical.
Experiment [17] addresses RVV-X activated P. textilis venom FX (Pseudonaja textilis, UniProt Q56VR3). In words: biochemical.
The target of experiment [18] is RVV-X activated P. textilis isoform FX (Pseudonaja textilis, UniProt Q1L658). In words: biochemical.
Experiment [19] deals with purified recombinant P. textilis venom FXa (v-FXa) (Pseudonaja textilis, UniProt Q56VR3). The experiment is described as follows: biochemical.
Experiment [20] concerns the target chimeric factor Xa variant C (human FXa with His91-Tyr99 replaced by the homologous region of P. textilis isoform FX) (human | Pseudonaja textilis). In words: inhibition of enzyme amidolytic activity (Morrison tight-binding fit).
In experiment [21] the target is plasma-derived human factor Xa (human). The description is as above.
Experiment [22] has as its target recombinant wild-type human factor Xa (human). The description is as above.
Experiment [23] has as its target chimeric factor Xa variant B (human FXa with His91-Tyr99 replaced by the homologous region of Tropid (human | Tropidechus carinatus)). The experiment is described as above.
For experiment [24], the target named is chimeric factor Xa variant C (human FXa with His91-Tyr99 replaced by the homologous region of P. textilis isoform FX) (human | Pseudonaja textilis).
Experiment [25] addresses plasma-derived human factor Xa (human).
Experiment [26] addresses recombinant wild-type human factor Xa (human).
Experiment [27] has as its target chimeric factor Xa variant B (human FXa with His91-Tyr99 replaced by the homologous region of Tropid (human | Tropidechus carinatus)).
For experiment [28], the system named is T1, FXa-A. Format: biochemical. Conditions: read-out: SpecXa Michaelis–Menten constant (K m).
Experiment [29] deals with T4, wt-FXa (WT). Format: biochemical. Conditions: read-out: SpecXa Michaelis–Menten constant (K m).
In experiment [30] the test system is T2, FXa-C. Type of experiment: biochemical. To be noted: read-out: SpecXa Michaelis–Menten constant (K m).
The test system of experiment [31] is T5, FXa-B. Format: biochemical. To be noted: read-out: SpecXa Michaelis–Menten constant (K m).
For experiment [32], the target named is T3, pd-FXa (h-FXa). Format: biochemical. Conditions: read-out: SpecXa Michaelis–Menten constant (K m).

Where two headings read alike, the source gives them in different places. Non-standard residues stand in square brackets, D forms with d. Residues, ends and D or L forms follow the SMILES beside them. *: point of attachment. dChg = N[C@@H](C(=O)O)C1CCCCC1; pNA = O=[N+]([O-])c1ccc(N*)cc1; Cbz = O=C(OCc1ccccc1)*; Moc = COC(=O)*

For `N=C(N)NCCC[C@H](NC(=O)CNC(=O)[C@@H](CCCNC(=N)N)NC(=O)OCc1ccccc1)C(=O)Nc1ccc([N+](=O)[O-])cc1` [S2765, N-α-benzyloxycarbonyl-D-Arg-Gly-Arg-pNA] (Cbz-[dR]-Gly-Arg-pNA), the Km with FXa-A [1] amounted to 39 ± 7 µM; with FXa-C [2], 216 ± 28 µM; on pd-FXa (h-FXa) [3], 59 ± 19 µM; on pd-FXa (h-FXa) [4], 29 ± 8 µM; in the experiment with FXa-A [5], 243 ± 50 µM; at wt-FXa (WT) [6], 33 ± 7 µM. Also, the Km in the experiment on FXa-B [7] amounted to 49 ± 8 µM; in the experiment with FXa-C [8] it was 60 ± 11 µM; on wt-FXa (WT) [9] it was 26 ± 8 µM; with FXa-B [10], 249 ± 29 µM.

With “chimeric factor Xa variant B (human FXa with His91-Tyr99 replaced by the homologous region of Tropid (enzyme)”, the Kd in experiment [11] amounted to 0.85 nM.

As usually defined, the Ki is a measure of affinity in units of concentration, obtained from inhibition or displacement. In the case of “rTAP (YNRLCIKPRDWIDECDSNEGGERAYFRNGKGGCDSFWICPEDHTGADYYSSYRDCFNACI)”, the Ki worked out at 7.92 ± 1.88 nM in the experiment with FXa-B [12]; 0.7 ± 0.04 nM in the experiment with wt-FXa; 26.3 ± 8.45 nM with FXa-A [14]; 0.87 ± 0.18 nM with pd-FXa; 20.2 ± 6.56 nM in the experiment with FXa-C [15]. In addition, in the experiment with FXa-B [13], the fold reduced binding entry is on record as “at least 11 fold”.

Broadly, the IC50 is the concentration that inhibits the measured activity by half. As for `COc1ccc(-n2nc(C(N)=O)c3c2C(=O)N(c2ccc(N4CCCCC4=O)cc2)CC3)cc1` [Apixaban, 1-(4-methoxyphenyl)-7-oxo-6-(4-(2-oxopiperidin-1-yl)phenyl)-4,5,6,7-tetrahydro-1H -pyrazolo[3,4-c]pyridine-3-carboxamide], the IC50 is 12 nM in experiment [16], not below 100000 nM in experiment [17], not below 100000 nM in experiment [18] and not below 100000 nM in experiment [19].

As to plasma-derived human factor Xa (enzyme), in experiment [11], the Kd was 0.41 nM.

“chimeric factor Xa variant C (human FXa with His91-Tyr99 replaced by the homologous region of P. textilis isoform FX) (enzyme)”: in experiment [11], the Kd was 0.57 nM.

As to “recombinant tick saliva anticoagulant protein (from UniProt P17726 1-60) (natural protein)”, the inhibitory constant (Ki) in [20] worked out at 20.2 nM; in experiment [21], 0.87 nM; in experiment [22], 0.7 nM; in experiment [23] it was 7.92 nM.

As for “tissue factor pathway inhibitor alpha (from UniProt P10646-1 29-304) (natural protein)”, the Ki came out at 6.46 nM in experiment [20], 1.62 nM in experiment [22] and 4.41 nM in experiment [23].

Turning to “antithrombin (from UniProt P01008 33-464) (natural protein)”, the k 2, UFH: second-order rate constant of FXa inhibition by antithrombin with unfractionated heparin came out at 6.73e+06 M⁻¹ s⁻¹ in experiment [24], 3.59e+06 M⁻¹ s⁻¹ in experiment [25], 3.09e+06 M⁻¹ s⁻¹ in experiment [26] and 1.02e+06 M⁻¹ s⁻¹ in experiment [27]. The k 2, uncatalyzed: second-order rate constant of FXa inhibition by antithrombin in experiment [24] came out at 950 M⁻¹ s⁻¹; in experiment [25], 1550 M⁻¹ s⁻¹; in experiment [26], 4070 M⁻¹ s⁻¹; in experiment [27] it was 410 M⁻¹ s⁻¹.

`COC(=O)N[C@@H](C(=O)NCC(=O)N[C@@H](CCCNC(=N)N)C(=O)Nc1ccc([N+](=O)[O-])cc1)C1CCCCC1` [SpecXa, methoxycarbonylcyclohexylglycylglycyl-Arg-pNA] (Moc-[dChg]-Gly-Arg-pNA): the Km in the experiment on FXa-A [28] was 645 µM; at wt-FXa (WT) [29], 135 µM; with FXa-C [30], 659 µM; with FXa-B [31], 658 µM; at pd-FXa (h-FXa) [32], 138 µM.

As for “recombinant wild-type human factor Xa (enzyme)”, in experiment [11], the Kd amounted to 1.44 nM.

With `O=C(NC[C@H]1CN(c2ccc(N3CCOCC3=O)cc2)C(=O)O1)c1ccc(Cl)s1` [Rivaroxaban, 5-chloro-N-({(5S)-2-oxo-3-[4-(3-oxomorpholin-4-yl)phenyl]-1,3-oxazolidin-5-yl}methyl)thiophene-2-carboxamide], in experiment [19], the IC50 is not below 30000 nM.
